Laboratory results reported in US20110158985A1 (published 2011).
Where a chain is given by its changes, count along the chain named. Names may count otherwise. “And” between values parts separate entries of the source, which are not always exact repeats. Equal values may be shown once. Read-outs that look alike come from different tables or passages of the source.

What was measured:
[1] = biological target: T1, RSV F glycoprotein (NUF4) (respiratory syncytial virus); test: ITC, NUF4 titrated into antibody, 35 C
T1 chain 1: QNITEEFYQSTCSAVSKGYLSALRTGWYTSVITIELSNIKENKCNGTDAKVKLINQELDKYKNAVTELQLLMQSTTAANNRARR
T1 chain 2: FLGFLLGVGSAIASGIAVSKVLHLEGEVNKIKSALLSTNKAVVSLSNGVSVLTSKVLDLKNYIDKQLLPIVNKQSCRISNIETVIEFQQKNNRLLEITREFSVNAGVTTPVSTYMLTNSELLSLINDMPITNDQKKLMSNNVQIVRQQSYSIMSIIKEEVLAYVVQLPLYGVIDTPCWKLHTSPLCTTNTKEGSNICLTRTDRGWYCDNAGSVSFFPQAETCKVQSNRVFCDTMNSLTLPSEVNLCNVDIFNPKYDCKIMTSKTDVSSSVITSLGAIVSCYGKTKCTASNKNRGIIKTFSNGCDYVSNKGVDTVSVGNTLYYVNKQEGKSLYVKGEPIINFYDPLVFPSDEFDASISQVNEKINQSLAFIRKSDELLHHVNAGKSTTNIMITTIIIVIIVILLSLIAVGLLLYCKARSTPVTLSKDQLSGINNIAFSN
Description: The binding thermodynamics of the antibodies were determined from ITC measurements using a Microcal, Inc. VP Titration Calorimeter. The VP titration calorimeter consists of a matched pair of sample and reference vessels (1.409 ml) enclosed in an adiabatic enclosure and a rotating stirrer-syringe for titrating ligand solutions into the sample vessel. The ITC measurements were performed at 25° C. and 35° C. The sample vessel contained the antibody in the phosphate buffer while the reference vessel contained just the buffer solution. The phosphate buffer solution was saline 67 mM PO₄ at pH 7.4 from HyClone, Inc. Five or ten μl aliquots of the 0.05 to 0.1 mM NUF4 solution were titrated 3 to 4 minutes apart into the antibody sample solution until the binding was saturated as evident by the lack of a heat exchange signal. […] This was attributed to a heat of dilution of the NUF4 titrant and was subtracted from the titrant heats obtained during the titration prior to analysis of the data.
A non-linear, least square minimization software program from Microcal, Inc., Origin 5.0, was used to fit the incremental heat of the ith titration (ΔQ (i)) of the total heat, Qₜ, to the total titrant concentration, Xₜ, according to the following equations (I),

[2] = biological target: T2, F protein of RSV (Long strain) (RSV (Long strain), UniProt P12568 26-574); test: cell-based or functional assay
Target sequence in this assay (P12568 26-574): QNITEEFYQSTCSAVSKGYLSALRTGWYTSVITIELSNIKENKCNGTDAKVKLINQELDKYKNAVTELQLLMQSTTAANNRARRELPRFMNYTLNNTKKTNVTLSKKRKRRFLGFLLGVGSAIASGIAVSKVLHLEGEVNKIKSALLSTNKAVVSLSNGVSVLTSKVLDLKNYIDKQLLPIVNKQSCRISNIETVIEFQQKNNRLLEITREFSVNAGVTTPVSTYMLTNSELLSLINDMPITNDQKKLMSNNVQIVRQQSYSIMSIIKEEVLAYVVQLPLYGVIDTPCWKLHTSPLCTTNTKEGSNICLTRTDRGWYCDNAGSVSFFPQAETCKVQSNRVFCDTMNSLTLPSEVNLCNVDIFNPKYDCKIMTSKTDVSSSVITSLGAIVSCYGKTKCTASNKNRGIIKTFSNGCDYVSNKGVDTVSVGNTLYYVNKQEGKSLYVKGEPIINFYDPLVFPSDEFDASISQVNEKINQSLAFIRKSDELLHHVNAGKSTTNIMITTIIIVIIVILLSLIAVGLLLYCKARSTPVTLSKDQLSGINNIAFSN

Bac-F = Bac-F (respiratory syncytial virus); test: SPR (BIAcore), mAb vs Bac-F (1:1)
Bac-F (respiratory syncytial virus), sequence (P03420 26-524): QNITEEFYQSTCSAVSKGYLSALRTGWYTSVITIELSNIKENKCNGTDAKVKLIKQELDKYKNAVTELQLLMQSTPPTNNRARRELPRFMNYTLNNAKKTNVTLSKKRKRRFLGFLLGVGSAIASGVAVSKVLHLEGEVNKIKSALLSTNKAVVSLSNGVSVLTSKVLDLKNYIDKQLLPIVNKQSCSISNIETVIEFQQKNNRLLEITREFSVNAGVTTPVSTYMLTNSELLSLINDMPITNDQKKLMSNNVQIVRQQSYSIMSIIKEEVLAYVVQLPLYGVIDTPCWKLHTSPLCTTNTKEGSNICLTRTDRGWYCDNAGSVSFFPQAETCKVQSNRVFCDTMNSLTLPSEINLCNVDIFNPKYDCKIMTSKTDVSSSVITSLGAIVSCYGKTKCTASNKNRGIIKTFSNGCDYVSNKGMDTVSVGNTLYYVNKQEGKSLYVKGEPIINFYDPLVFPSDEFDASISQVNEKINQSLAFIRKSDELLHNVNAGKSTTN

[3] = biological target: T2, F protein of RSV (Long strain); test: cell-based or functional assay; remark: listed apart in the source
[4] = biological target: T3, recombinant C-terminally truncated RSV (A2 strain) F protein (RSV (A2 strain), UniProt P03420 26-524); test: SPR (BIAcore), IgG over immobilised F
T3 construct: extracellular domain; also called truncated F protein; extracellular domain of the F protein from RSV A2
Target sequence in this assay (P03420 26-109, chain 1 of 2): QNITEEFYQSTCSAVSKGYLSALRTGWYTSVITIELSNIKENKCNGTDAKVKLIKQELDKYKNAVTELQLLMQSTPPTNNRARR
Target sequence in this assay (P03420 137-524, chain 2 of 2): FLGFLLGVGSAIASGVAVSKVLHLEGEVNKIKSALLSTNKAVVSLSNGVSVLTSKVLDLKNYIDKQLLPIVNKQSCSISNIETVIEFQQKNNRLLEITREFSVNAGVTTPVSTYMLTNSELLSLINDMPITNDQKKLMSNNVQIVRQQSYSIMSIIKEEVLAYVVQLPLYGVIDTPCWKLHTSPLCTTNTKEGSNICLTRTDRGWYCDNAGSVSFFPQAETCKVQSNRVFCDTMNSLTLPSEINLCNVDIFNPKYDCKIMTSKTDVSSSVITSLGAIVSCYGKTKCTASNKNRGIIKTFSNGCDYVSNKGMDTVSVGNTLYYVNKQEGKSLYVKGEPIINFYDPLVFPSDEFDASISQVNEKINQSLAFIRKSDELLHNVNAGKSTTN

[5] = biological target: T1, RSV F glycoprotein (NUF4); test: SPR (BIAcore), mAb vs NUF4 (1:1)
[6] = biological target: T1, RSV F glycoprotein (NUF4); test: SPR (BIAcore), mAb vs NUF4 (2:1)
[7] = biological target: T3, recombinant C-terminally truncated RSV …; test: SPR (BIAcore), Fab over immobilised F
[8] = biological target: T3, recombinant C-terminally truncated RSV …; test: SPR (BIAcore), Fab over immobilised F; remark: listed apart in the source
Target sequence in this assay (P03420 26-109, chain 1 of 2): as the sequence (P03420 26-109, chain 1 of 2) above
Target sequence in this assay (P03420 137-524, chain 2 of 2): as the sequence (P03420 137-524, chain 2 of 2) above

[9] = biological target: T2, F protein of RSV (Long strain); test: cell-based or functional assay; remark: listed apart in the source
[10] = biological target: T3, recombinant C-terminally truncated RSV …; test: SPR (BIAcore), IgG over immobilised F; remark: listed apart in the source
Target sequence in this assay (P03420 26-109, chain 1 of 2): as the sequence (P03420 26-109, chain 1 of 2) above
Target sequence in this assay (P03420 137-524, chain 2 of 2): as the sequence (P03420 137-524, chain 2 of 2) above

[11] = biological target: T3, recombinant C-terminally truncated RSV …; test: SPR (BIAcore), Fab over immobilised F; remark: listed apart in the source
RSV F protein (purified) = RSV F protein (purified) (respiratory syncytial virus); test: SPR (BIAcore), F protein immobilised

B1: A13c4 IgG (antibody, V domains shown)
VH: QVTLRESGPALVKPTQTLTLTCTFSGFSLSTAGMSVGWIRQPPGKALEWLADIWWDGKKSYNPSLKDRLTISKDTSKNQVVLKVTNMDPADTATYYCARDMIFNFYFDVWGQGTTVTVSS
VL: DIQMTQSPSTLSASVGDRVTITCSLSSRVGYMHWYQQKPGKAPKLLIYDTMYQSSGVPSRFSGSGSGTEFTLTISSLQPDDFATYYCFQGSGYPFTFGGGTKVEIKR
Binder B1 has a Ka [1] of 1.07e+08 M⁻¹, a Kd [1] of 9000 pM and a ΔHb [1] of 16 kcal/mol. The “Mean IC50 (Control)” value [2] was 0.0375 µg/mL, the “Mean IC50 (Curve)” value [2] was 0.0376 µg/mL and the Kd (Bac-F) was 130 pM. For the same binder, the “fold in parentheses (palivizumab = 1)” value (Bac-F) was 30 fold, the “Microneutralization IC50, IgG” value [3] was 0.0376 µg/ml and 0.25 nM and the Kd [4] was 132 pM. It also gave a koff [4] of 3.96e-05 s⁻¹, a kon [4] of 300000 M⁻¹ s⁻¹ and a Kd [5] of 750 pM. The “fold in parentheses (palivizumab = 1)” value [5] was 12 fold, the koff [5] was 0.000272 s⁻¹ and the kon [5] was 365000 M⁻¹ s⁻¹. For the same binder, the Kd [6] was 700 pM, the “fold in parentheses (palivizumab = 1)” value [6] was 446 fold and the koff [6] was 0.000225 s⁻¹. The kon [6] was 320000 M⁻¹ s⁻¹.

B2: S32A Fab (Fab, name in Kabat numbering, V domains shown)
VH: B1 VH with G57D, S60D, D67S, D100S, F103T, F105W
VL: DIQMTQSPSTLSASVGDRVTITCSASSSVGYMHWYQQKPGKAPKLLIYDTSKLASGVPSRFSGSGSGTEFTLTISSLQPDDFATYYCFQGSGYPFTFGGGTKVEIK
With B2 the “fold improvement in affinity over 493L1FR Fab” value [7] was 3 to 7 fold, the Kd [8] was 470 pM and the koff [8] was 9.3e-05 s⁻¹. The kon [8] was 196000 M⁻¹ s⁻¹ and the “Microneutralization IC50, Fab” value [9] was 4.85 µg/ml and 97 nM.

B3: W100F Fab (Fab, name in Kabat numbering, V domains shown)
VH: B1 VH with A32S, G57D, S60D, D67S, D100S, F103T
VL: B2 VL
For B3, the “fold improvement in koff (against palivizumab Fab)” value [7] was 8 fold, the Kd [8] was 510 pM and the koff [8] was 8.4e-05 s⁻¹. The kon [8] was 165000 M⁻¹ s⁻¹ and the “Microneutralization IC50, Fab” value [9] was 2.6 µg/ml and 52 nM.

B4: AFFG IgG (antibody, name in Kabat numbering, V domains shown)
VH: B1 VH with G57D, S60D, D67S, D100S, F103T
VL: B2 VL with S51F
For B4, the koff [10] was at most 5e-06 s⁻¹, the kon [10] was 147000 M⁻¹ s⁻¹ and the “Microneutralization IC50, IgG” value [9] was 0.453 µg/ml and 3.02 nM.

B5: G93F Fab (Fab, name in Kabat numbering, V domains shown)
VH: B1 VH with A32S, G57D, S60D, D67S, D100S, F103T, F105W
VL: B2 VL with G92F
For B5, the “fold improvement in affinity over 493L1FR Fab” value [7] was 3 to 7 fold, the Kd [8] was 1070 pM and the koff [8] was 0.000174 s⁻¹. For the same binder, the kon [8] was 163000 M⁻¹ s⁻¹ and the “Microneutralization IC50, Fab” value [9] was 8.84 µg/ml and 177 nM.

B6: A17d4(1) IgG (antibody, V domains shown)
VH: B1 VH
VL: B1 VL with S24L, L25P
B6 gave a Ka [1] of 7.5e+07 M⁻¹, a Kd [1] of 13000 pM and a ΔHb [1] of 16.3 kcal/mol. For the same binder, the “Mean IC50 (Control)” value [2] was 0.0354 µg/mL, the “Mean IC50 (Curve)” value [2] was 0.0342 µg/mL and the Kd (Bac-F) was 90 pM. The “fold in parentheses (palivizumab = 1)” value (Bac-F) was 43 fold, the “Microneutralization IC50, IgG” value [3] was 0.0342 µg/ml and 0.23 nM and the Kd [4] was 89 pM. It also gave a koff [4] of 4.07e-05 s⁻¹, a kon [4] of 456000 M⁻¹ s⁻¹ and a Kd [5] of 730 pM. For the same binder, the “fold in parentheses (palivizumab = 1)” value [5] was 12 fold, the koff [5] was 0.000362 s⁻¹ and the kon [5] was 499000 M⁻¹ s⁻¹. The Kd [6] was 1110 pM, the “fold in parentheses (palivizumab = 1)” value [6] was 281 fold and the koff [6] was 0.000292 s⁻¹. For the same binder, the kon [6] was 264000 M⁻¹ s⁻¹.

B7: AFFG Fab (Fab, name in Kabat numbering, V domains shown)
VH: B1 VH with G57D, S60D, D67S, D100S, F103T
VL: B2 VL with S51F
In the case of B7, the “fold higher affinity than palivizumab Fab” value [7] is reported as over 117 fold, the Kd [8] is reported as at most 38 pM and the koff [8] is reported as at most 5e-06 s⁻¹. For the same binder, the kon [8] was 133000 M⁻¹ s⁻¹ and the “Microneutralization IC50, Fab” value [9] was 0.249 µg/ml and 4.98 nM.

B8: AFFF(1) Fab (Fab, V domains shown)
VH: B1 VH with G57D, S60D, D67S, D100S, F103T
VL: B2 VL with S51F, G92F
notes: also called AHH(1)
Work on B8 yielded a Kd [11] of at most 37 pM, a koff [11] of at most 5e-06 s⁻¹ and a kon [11] of 134000 M⁻¹ s⁻¹. For the same binder, the “fold higher affinity than palivizumab Fab” value [7] was over 117 fold, the koff (RSV F protein (purified)) was 0.000245 s⁻¹ and 0.000446 s⁻¹ and 0.000268 s⁻¹ and the kon (RSV F protein (purified)) was 212000 M⁻¹ s⁻¹ and 156000 M⁻¹ s⁻¹ and 186000 M⁻¹ s⁻¹. For the same binder, the “Microneutralization IC50, Fab” value [3] was 0.0715 µg/ml and 1.43 nM, the Kd [8] was at most 37 pM and the koff [8] was at most 5e-06 s⁻¹. For the same binder, the kon [8] was 134000 M⁻¹ s⁻¹ and the “Microneutralization IC50, Fab” value [9] was 0.0715 µg/ml and 1.43 nM.
